Biological target: FITC-labeled NB.1
Assay: fluorescence polarisation; direct fluorescence anisotropy: 1:1 dilution series of 14-3-3γ (starting at 100 μM) into FITC-labeled peptide (10 nM or 50 nM); 10 mM HEPES pH 7.4, 150 mM NaCl, 0.1% Tween 20, 0.1% BSA; ambient temperature

fold weaker binding than the 14-3-3γ-binding peptides: 10000 fold
B1: 14-3-3γ (natural protein)
chain: MVDREQLVQKARLAEQAERYDDMAAAMKNVTELNEPLSNEERNLLSVAYKNVVGARRSSWRVISSIEQKTSADGNEKKIEMVRAYREKIEKELEAVCQDVLSLLDNYLIKNCSETQYESKVFYLKMKGDYYRYLAEVATGEKRATVVESSEKAYSEAHEISKEHMQPTHPIRLGLALNYSVFYYEIQNAPEQACHLAKTAFDDAIAELDTLNEDSYKDSTLIMQLLRDNLTLWTSDQQDDDGGEGNN

From publication PMC7311396, “Ultra-large chemical libraries for the discovery of high-affinity peptide binders” (Nature Communications, 2020)
